This note sets out measurements from PMC6238592.

The target in this assay is human FACT (FAcilitates Chromatin Transcription), full length (human) (UniProt Q9Y5B9). Nature of the assay: AUC; SV-AUC, absorbance optics; 1.8 μM FACT incubated with histones at the indicated molar ratios for 10 min at room temperature; 150 mM NaCl, 20 mM Tris pH 8.0, 1 mM TCEP; 20°C.

As for “histone H2A–H2B dimer (no label stated) (from UniProt P06897 1-130; P02281 1-126) (complex)”, the stoichiometry N (H2A–H2B per FACT) amounted to 1.
